According to patent US20110293603A1 (Ablynx, published 2011):

T1: extracellular part of recombinant human SR-A1 fused to polyhistidine tag (R&D Systems Cat No 2708-MS) (human, UniProt P21757 77-451)
T1 construct: range 77-451; Bought protein; that entry was therefore not used; also called rhSRA-1
T1 sequence: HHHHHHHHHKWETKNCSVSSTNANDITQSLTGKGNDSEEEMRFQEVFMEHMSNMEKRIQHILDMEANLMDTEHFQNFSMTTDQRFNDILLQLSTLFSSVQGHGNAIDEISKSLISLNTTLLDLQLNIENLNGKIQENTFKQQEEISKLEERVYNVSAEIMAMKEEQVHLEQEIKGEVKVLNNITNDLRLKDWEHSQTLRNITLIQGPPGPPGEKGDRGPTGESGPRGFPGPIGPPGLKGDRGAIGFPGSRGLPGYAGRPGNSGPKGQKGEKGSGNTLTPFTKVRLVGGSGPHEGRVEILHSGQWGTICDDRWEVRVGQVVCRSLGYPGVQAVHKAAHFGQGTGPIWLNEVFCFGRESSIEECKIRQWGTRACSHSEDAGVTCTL


Assays:
[1] = target: T2, extracellular part of recombinant human Lox-1 fused to polyhistidine tag (R&D Systems, cat nr. 1798-LX) (human, UniProt P78380 61-273); assay: ELISA, rhLox-1 coated at 2 ug/ml, nanobody 1-1000 nM, detection with anti-Myc 9E10
[2] = target: T3, extracellular part of recombinant human RAGE fused to human Fc (R&D Systems Cat No 1145-RG) (human, UniProt Q15109 23-342); assay: immunoprecipitation on Talon beads, SDS-PAGE and blot with mouse anti-RAGE and mouse anti-myc
T3 construct: extracellular domain; Bought protein; they look like the limits of the IgG1 Fc part; also called rhRG; 1145-RAGE; not shown: human Fc region of human IgG1, at the C-terminus
Method: In order to test the binding of anti-RAGE clones further an Immunoprecipitation experiment was performed. In short, 100 ul of Talon slurry (50 ul beads) was washed carefully with lysis buffer (RIPA without EDTA) (20 mM tris pH7.4; 150 mM NaCl; 0.5% TritonX100; 0.1% SDS). 10 ug of VHHs was added to the beads in 200 ul of lysis buffer and incubate for 30 min hoh. The beads were washed once with lysis buffer and 1 ug of rhRG was added to the beads (100 ul) and incubated for 1 hour. The beads were spinned down and supernatant was removed. The beads were washed twice. Subsequently the beads were boiled for 5 min in sample buffer and the proteins were separated on a SDS PAGE by gel electrophoresis (FIG. 1).
The high molecular weight part was detected with mouse-anti-RAGE antibody (R&D systems) and the lower part was detected with mouse anti-myc.

[3] = target: T1, extracellular part of recombinant human …; assay: ELISA, rhSRA-1 coated at 2 ug/ml, nanobody 1-1000 nM, detection with anti-Myc 9E10
[4] = target: T2, extracellular part of recombinant human …; assay: ELISA, rhLox-1 coated at 2 ug/ml, nanobody detected with anti-Myc 9E10
[5] = target: T1, extracellular part of recombinant human …; assay: ELISA, rhSRA-1 coated at 2 ug/ml, nanobody detected with anti-Myc 9E10

T3 sequence (Q15109 23-342): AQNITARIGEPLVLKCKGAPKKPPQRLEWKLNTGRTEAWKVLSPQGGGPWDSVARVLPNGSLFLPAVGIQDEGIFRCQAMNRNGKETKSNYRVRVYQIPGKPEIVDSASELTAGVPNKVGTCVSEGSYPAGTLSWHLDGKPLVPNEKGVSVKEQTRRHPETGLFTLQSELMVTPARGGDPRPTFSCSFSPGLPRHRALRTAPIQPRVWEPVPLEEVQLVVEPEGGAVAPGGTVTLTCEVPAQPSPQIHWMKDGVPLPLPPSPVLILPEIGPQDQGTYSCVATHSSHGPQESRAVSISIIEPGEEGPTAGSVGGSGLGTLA

Binder | binding result [1] | also measured
Nanobody 98F12 (VHH, Myc-tagged (detected with anti-Myc 9E10)) VHH: EVQLVESGGGLVQAGGSLRLSCAASGFTFDDYAIGWFRQAPGKEREGVSCVSRDGGSTYYLDSVKGRFTISSDNAKNTVYLQMNSLKPEDAAVYYCAASRYDCSKYLIDYNYRGQGTQVTVSS | binds | 
Nanobody 98B9 (VHH, Myc-tagged (detected with anti-Myc 9E10)) VHH: EVQLVESGGGLVQAGGSLRLSCAASIGTFSAYHMGWFRQAPGKERELVAAISWSVSSTYYADSVKGRFTISRDNAKRTVSLQMDSLKPEDTAVYYCAARSGERYDYYKAQYEYWGQGTQVTVSS | binds | 
Nanobody 105F7 (VHH, Myc-tagged (detected with anti-Myc 9E10)) VHH: EVQLVESGGGLVQAGGSLRLSCAASGRTFSNYAMGWFRQAPGKEREFVAAITWSGSSTYYADSVKGRFTISRDNAKNTVYLQMNSLKPEDTAVYYCAAAQRGRYYYLDRNVEYDYWGQGTQVTVSS | binds | 
Nanobody 99D3 (VHH, Myc-tagged (detected with anti-Myc 9E10)) VHH: EVQLVESGGGLVQPGGSLRLSCAASGFTLGNYAIGWFRQAPGKEREGVSCVDRDGGSTYYLDSVTGRFTTSRDDAENTVYLQMNSLIPDDTAVYYCATRLYGCSGYGRDYADWGQGTQVTVSS |  | binding result [2]: no binding
Nanobody 98D8 (VHH, Myc-tagged (detected with anti-Myc 9E10)) VHH: EVQLVESGGGLVQPGGSLRLSCAASGSIFTINAMAWYRQAPGKQRELVAHLTNSGRTGYADSVKGRFTISSDNAKNTVYLQMNSLKPEDTAVYYCNRLGLHWSWGQGTQVTVSS | binds | 
Nanobody 99C9 (VHH, Myc-tagged (detected with anti-Myc 9E10)) VHH: EVQLVESGGGLVQVGGSLRLSCAASGISIRTHAMGWYRQAPGKQRELVATITSVTSGGSLNYADSVKGRFTISRDNAKNTVYLQMNSLKPEDTAVYYCKLLGFDYRGQGTQVTVSS |  | binding result [3]: binds
Nanobody 105G11 (VHH, Myc-tagged (detected with anti-Myc 9E10)) VHH: EVQLVESGGGLVQAGGSLRLSCAASGRTFSRYAMAWFRHAPGKDREFVAAVSQSGLLTFYADSVKGRFTISRDNAKNTVYLQMNSLKPEDTAVYDCAADSRFPLVVPVAYENWGQGTQVTVSS |  | binding result [3]: binds
Nanobody 99C8 (VHH, Myc-tagged (detected with anti-Myc 9E10); also called 99C8 α SR-A1) VHH: EVQLVESGGGLVQPGGSLRLSCAASGSIGRFVAMGWYRQAPGKQRELVATITSITSGGRTNYADSVKGRFTISRDNAKNTVYLQMNSLKPEDTAVYYCNVVPYVNDYWGQGTQVTVSS |  | binding result [3]: binds
Nanobody 49C5 (negative control, irrelevant nanobody against alphaFcgRI) (VHH, Negative control; generation published in WO2008/074867; Myc-tagged (detected with 9E10)) VHH: EVQLVESGGGLVQAGGSLGLSCVASGRTFVSGGMGWFRQAPGKEREFVASIVWIGGRTYYADSVKGRFTISGDNAKSTVTLQMNSLKPEDTATYYCADGDLATGTYDYWGQGTQVTVSS |  | binding result [4]: no binding (tested: 1-1000 nM); binding result [5]: no binding (tested: 1-1000 nM)

Second part, led by results:

binding result [1] | Binder | also measured
binds | Nanobody 105A8 (VHH, Myc-tagged (detected with anti-Myc 9E10)) VHH: EVQLVESGGNLVQAGGSLRLSCAASGFTFDDYVIGWFRQAPGKEREGVSCISSVEGSTYYADSVKGRFTISGDNAKNTVYLQMNSLKPEDTAVYYCAAGTWLDCSGYGSYDMDYWGKGTLVTVSS | 
binds | Nanobody 105B8 (VHH, Myc-tagged (detected with anti-Myc 9E10)) VHH: EVQLVESGGGLVQAGGSLRLSCAASGFTFDDYVIGWFRQAPGKEREGVSCISSSEGSTYYAESVKGRFTISSDNAKNTVYLQMNSLKPEDTAVYYCAASTWLDFVHGNEYDYRGQGTQVTVSS | 
binds | Nanobody 98E9 (VHH, Myc-tagged (detected with anti-Myc 9E10)) VHH: EVQLVESGGGLVQPGGSLRLSCAAYGSFFSIGTMGWYRQPPGNQRELVAVTYGLGSTNYAESVKGRFTISRDNAKNTVSLQMNSLKPEDTAVYYCYAEIDTDPRSGEWDYWGQGTQVTVSS | 
binds | Nanobody 98A10 (VHH, Myc-tagged (detected with anti-Myc 9E10)) VHH: EVQLVESGGGLVQPGGSLRLSCLPSTSTSSLRTVGWYRQGPGKQRDLVAIMSAGTTRYADSVKGRFTISLDDAKNTVYLQMNSLKPEDTAVYICNGRPVFSNVDYWGQGTQVTVSS | 
